Data taken from publication doi:10.1101/2020.01.02.892901.
“And” between values parts separate entries of the source, which are not always exact repeats. Equal values may be shown once.

Target: MET pY1313 phosphopeptide (human)
Experiment: fluorescence polarisation

## FGR SH2 domain (from UniProt P09769 144-241) (domain or fragment)
  Kd: 3 µM and 12 µM
